These results are taken from patent publication US20200087400A1 (EUREKA THERAPEUTICS, published 2020).

Experiment [1] addresses T1, HLA-A*02:01 on T2 cells with no peptide loaded (human).
T1 construct: TAP-deficient T2 cells, no peptide loaded from outside; also called T2 cells without peptide loading
The experiment can be described thus: FACS; scFv phage on T2 cells without peptide. The procedure:
(§1) Individual phage clones from enriched phage display panning pools against PSA146/HLA-A*02:01 complex were incubated in the coated plates. Binding of the phage clones was detected by HRP-conjugated anti-M13 antibodies and developed using HRP substrate. The absorbance was read at 450 nm. […] Then, unique antibody clones were identified through DNA sequencing of ELISA-positive clones. […] T2 cells loaded with different peptides and β2M were first stained with purified scFv phage clones, followed by staining with a mouse anti-M13 mAb, and finally R-PE conjugated horse anti-mouse IgG from Vector Labs. Each step of the staining was performed for between 30-60 minutes on ice and the cells were washed twice between stainings. All 16 clones recognized PSA146-loaded T2 cells specifically. FIG. 3 provides examples of PSA146/HLA-A*02:01 specific phage clone binding to peptide-loaded T2 cells through FACS.

Experiment [2] addresses T2, PSA 146-154 peptide/HLA-A*02:01 complex on the cell surface (human).
T2 construct: also called PSA146/HLA-A*02:01; PSA146-loaded T2 cells
The experiment can be described thus: FACS; scFv phage on PSA146-loaded live T2 cells. The procedure: as §1

Experiment [3] deals with T3, control peptide A2E-1/HLA-A*02:01 complex on T2 cells (member of the P19 mixture) (human).
T3 construct: Loaded on T2 cells as part of the mixture of 19 control peptides
Briefly: FACS; scFv phage on T2 cells loaded with the P19 mixture. The protocol:
as §1

The target in experiment [4] is T4, control peptide A2E-2/HLA-A*02:01 complex on T2 cells (member of the P19 mixture) (human).
T4 construct: Loaded on T2 cells as part of the mixture of 19 control peptides
The experiment is described as above. The procedure: as §1

Experiment [5] has as its target T5, control peptide A2E-3/HLA-A*02:01 complex on T2 cells (member of the P19 mixture) (human).
T5 construct: Loaded on T2 cells as part of the mixture of 19 control peptides
Described as above. The procedure: as §1

Experiment [6] has as its target T6, control peptide A2E-4/HLA-A*02:01 complex on T2 cells (member of the P19 mixture) (human).
T6 construct: Loaded on T2 cells as part of the mixture of 19 control peptides
Described as above. The procedure:
as §1

Experiment [7] has as its target T7, control peptide A2E-5/HLA-A*02:01 complex on T2 cells (member of the P19 mixture) (human).
T7 construct: Loaded on T2 cells as part of the mixture of 19 control peptides
The experiment is described as above. The procedure: as §1

Experiment [8] has as its target T8, control peptide A2E-6/HLA-A*02:01 complex on T2 cells (member of the P19 mixture) (human).
T8 construct: Loaded on T2 cells as part of the mixture of 19 control peptides
Described as above. The procedure: as §1

Experiment [9] has as its target T9, control peptide A2E-7/HLA-A*02:01 complex on T2 cells (member of the P19 mixture) (human).
T9 construct: Loaded on T2 cells as part of the mixture of 19 control peptides
Described as above. The procedure:
as §1

The target of experiment [10] is T10, control peptide A2E-8/HLA-A*02:01 complex on T2 cells (member of the P19 mixture) (human).
T10 construct: Loaded on T2 cells as part of the mixture of 19 control peptides
The description is as above. The procedure:
as §1

Experiment [11] concerns the target T11, control peptide A2E-9/HLA-A*02:01 complex on T2 cells (member of the P19 mixture) (human).
T11 construct: Loaded on T2 cells as part of the mixture of 19 control peptides
Described as above. The protocol:
as §1

The target of experiment [12] is T12, control peptide A2E-10/HLA-A*02:01 complex on T2 cells (member of the P19 mixture) (human).
T12 construct: Loaded on T2 cells as part of the mixture of 19 control peptides
Described as above. The procedure:
as §1

For experiment [13], the target named is T13, control peptide A2E-11/HLA-A*02:01 complex on T2 cells (member of the P19 mixture) (human).
T13 construct: Loaded on T2 cells as part of the mixture of 19 control peptides
Described as above. The protocol:
as §1

Experiment [14] addresses T14, control peptide A2E-13/HLA-A*02:01 complex on T2 cells (member of the P19 mixture) (human).
T14 construct: Loaded on T2 cells as part of the mixture of 19 control peptides
The experiment is described as above. The protocol:
as §1

In experiment [15] the target is T15, control peptide A2E-14/HLA-A*02:01 complex on T2 cells (member of the P19 mixture) (human).
T15 construct: Loaded on T2 cells as part of the mixture of 19 control peptides
Described as above. The protocol:
as §1

The target in experiment [16] is T16, control peptide A2E-15/HLA-A*02:01 complex on T2 cells (member of the P19 mixture) (human).
T16 construct: Loaded on T2 cells as part of the mixture of 19 control peptides
The experiment is described as above. The procedure: as §1

For experiment [17], the target named is T17, control peptide A2E-16/HLA-A*02:01 complex on T2 cells (member of the P19 mixture) (human).
T17 construct: Loaded on T2 cells as part of the mixture of 19 control peptides
The description is as above. The protocol:
as §1

The target of experiment [18] is T18, control peptide A2E-17/HLA-A*02:01 complex on T2 cells (member of the P19 mixture) (human).
T18 construct: Loaded on T2 cells as part of the mixture of 19 control peptides
Described as above. The procedure:
as §1

For experiment [19], the target named is T19, control peptide A2E-19/HLA-A*02:01 complex on T2 cells (member of the P19 mixture) (human).
T19 construct: Loaded on T2 cells as part of the mixture of 19 control peptides
The experiment is described as above. The protocol:
as §1

The target of experiment [20] is T20, control peptide A2E-21/HLA-A*02:01 complex on T2 cells (member of the P19 mixture) (human).
T20 construct: Loaded on T2 cells as part of the mixture of 19 control peptides
Described as above. The procedure: as §1

Experiment [21] addresses T21, control peptide A2E-23/HLA-A*02:01 complex on T2 cells (member of the P19 mixture) (human).
T21 construct: Loaded on T2 cells as part of the mixture of 19 control peptides
The description is as above. The procedure:
as §1

B1: PSA146/HLA-A*02:01-specific scFv phage clone #8 (scFv, V domains shown)
VH: QVQLQQWGAGLLKPSETLSLTCAVKGGSFSDYYWSWIRQPPGKGLEWIGEINHSGGTNYNPSLKSRVTISVDTSKNQFSLKLLSVTAADTAVYYCARYNEYGSGYDKWGQGTLVTVSS
VL: QSVLTQPPSVSAAPGQKVTISCSGSSYNIGNNYVSWYQQLPGTAPKLLIYDNNKRPSGIPDRFSGSKSGTSATLGITGLQTGDEAEYYCGTWESSLSAYVFGTGTKVTVLG
For B1, the binding result in [1] is reported as “no binding”; in experiment [2], “binds”; in [3], “no binding”; in [4], “no binding”; in experiment [5], “no binding”; in [6], “no binding”. The binding result in experiment [7], in [8], in experiment [9], in experiment [10], in experiment [11] and in [12] was “no binding” in each case. In addition, the binding result in experiment [13], in experiment [14], in experiment [15], in experiment [16], in [17] and in [18] was “no binding” in each case. Also, the binding result in [19], in experiment [20] and in experiment [21] was “no binding” throughout.
